B1: Azoarcus group I ribozyme (parent)
chain: GUGCCUUGCGCCGGGAAACCACGCAAGGGAUGGUGUCAAAUUCGGCGAAACCUAAGCGCCCGCCCGGGCGUAUGGCAACGCCGAGCCAAGCUUCGGCGCCUGCGCCGAUGAAGGUGUAGAGACUAGACGGCACCCACCUAAGGCAAACGCUAUGGUGAAGGCAUAGUCCAGGGAGUGGCGAAAGUCACACAAACCGG

Variants of: B1
Assay: reverse-splicing fitness (ratio to wild type); higher = more active; in vitro selection; Mg2+ level not given
How it was run: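 An in vitro group I ribozyme library with randomized positions was T7-transcribed and gel-purified. In triplicate, 10 pmol RNA in EPPS pH 7.5 was reacted with 50 pmoles of a 30-nt RNA substrate for 1 h at 37 °C across several added MgCl2 levels (1–48 mM), then stopped with EDTA. Products were reverse transcribed from a substrate-complementary primer, PCR-amplified and sequenced (HiSeq 4000). Fitness is a variant's read proportion after selection over that before, normalised to wild type.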
C82U A120G C150U U176C gave a reverse-splicing fitness of 0.0148.
For C82U A120G C150U U176G, the reverse-splicing fitness was 0.00504.
With C82U A120G C150U U176A the reverse-splicing fitness was 0.0106.
C82U A120U A145C C169U U176G gave a reverse-splicing fitness of 0.00172.
With C82U A120U A145C C169U U176C the reverse-splicing fitness was 0.00289.
In the case of C82U A120U A145C C169U U176A, the reverse-splicing fitness is reported as 0.00253.
With C82U A120G C150U C169G U176G the reverse-splicing fitness was 0.00429.
For C82U A120G C150U C169G U176A, the reverse-splicing fitness was 0.015.
With C82U A120G C150U C169G U176C the reverse-splicing fitness was 0.0189.
With C82U A120G A145U U176C the reverse-splicing fitness was 0.0139.
Work on C82U A120G A145U U176G yielded a reverse-splicing fitness of 0.00403.
C82U A120G A145U U176A gave a reverse-splicing fitness of 0.0127.
C82U A120U A145U C150A gave a reverse-splicing fitness of 0.0156.
C82U A120G A145U C150G C169G U176G gave a reverse-splicing fitness of 0.00361.
With C82U A120G A145U C150G C169G U176C the reverse-splicing fitness was 0.00534.
For C82U A120G A145U C150G C169G U176A, the reverse-splicing fitness was 0.00669.
For C82U A120G C150A C169A U176C, the reverse-splicing fitness was 0.0164.
C82U A120G C150A C169A U176G gave a reverse-splicing fitness of 0.00477.
Variant C82U A120G C150A C169A U176A has a reverse-splicing fitness of 0.0174.
Variant C82U A120U A145G C150A C169U U176A has a reverse-splicing fitness of 0.0038.
C82U A120U A145G C150A C169U U176C showed a reverse-splicing fitness of 0.00329.
Variant C82U A120U A145G C150A C169U U176G has a reverse-splicing fitness of 0.00199.
Work on C82U A120U A145C C169U yielded a reverse-splicing fitness of 0.00535.
C82U A120U A145C C169G showed a reverse-splicing fitness of 0.00426.
C82U A120U A145C C169A showed a reverse-splicing fitness of 0.00174.
C82U A120U A145G C150U C169A U176C gave a reverse-splicing fitness of 0.00278.
Variant C82U A120U A145G C150U C169A U176A has a reverse-splicing fitness of 0.00476.
For C82U A120U A145G C150U C169A U176G, the reverse-splicing fitness was 0.0022.
With C82U A120G A145G C150U U176G the reverse-splicing fitness was 0.00573.
C82U A120G A145G C150U U176A showed a reverse-splicing fitness of 0.00967.
Work on C82U A120G A145G C150U U176C yielded a reverse-splicing fitness of 0.019.
C82U A120G A145G C169G U176C showed a reverse-splicing fitness of 0.0317.
C82U A120G A145G C169G U176G gave a reverse-splicing fitness of 0.00333.
C82U A120G A145G C169G U176A showed a reverse-splicing fitness of 0.0223.
With C82U A120U A145G C150U the reverse-splicing fitness was 0.137.
C82U A120U A145G C150G gave a reverse-splicing fitness of 0.0229.
With C82U A120U A145G C150A the reverse-splicing fitness was 0.0257.
In the case of C82U A120G C169G U176G, the reverse-splicing fitness is reported as 0.00332.
For C82U A120G C169G U176C, the reverse-splicing fitness was 0.0246.
Work on C82U A120G C169G U176A yielded a reverse-splicing fitness of 0.0215.
Variant C82U A120G A145G C150A U176G has a reverse-splicing fitness of 0.00584.
With C82U A120G A145G C150A U176A the reverse-splicing fitness was 0.0092.
Work on C82U A120G A145G C150A U176C yielded a reverse-splicing fitness of 0.0182.
Work on C82U A120U A145G C150G C169A U176G yielded a reverse-splicing fitness of 0.00459.
C82U A120U A145G C150G C169A U176A showed a reverse-splicing fitness of 0.0107.
C82U A120U A145G C150G C169A U176C showed a reverse-splicing fitness of 0.00568.
With C82U A120G A145G C150A C169G U176A the reverse-splicing fitness was 0.0157.
C82U A120G A145G C150A C169G U176C gave a reverse-splicing fitness of 0.0255.
Work on C82U A120G A145G C150A C169G U176G yielded a reverse-splicing fitness of 0.00413.
C82U A120G A145U C150A C169G showed a reverse-splicing fitness of 0.0077.
Work on C82U A120G A145U C150A C169A yielded a reverse-splicing fitness of 0.00815.
Work on C82U A120G A145U C150A C169U yielded a reverse-splicing fitness of 0.0072.
C82U A120U A145C C150U U176A showed a reverse-splicing fitness of 0.0114.
Variant C82U A120U A145C C150U U176G has a reverse-splicing fitness of 0.00482.
In the case of C82U A120U A145C C150U U176C, the reverse-splicing fitness is reported as 0.0162.
For C82U A120G C150A C169U U176A, the reverse-splicing fitness was 0.0211.
C82U A120G C150A C169U U176C gave a reverse-splicing fitness of 0.0174.
C82U A120G C150A C169U U176G gave a reverse-splicing fitness of 0.00606.
C82U A120G C150A C169A gave a reverse-splicing fitness of 0.0118.
For C82U A120G C150A C169U, the reverse-splicing fitness was 0.00872.
Work on C82U A120G C150A C169G yielded a reverse-splicing fitness of 0.0102.
C82U A120G A145U C150G U176C showed a reverse-splicing fitness of 0.00808.
Variant C82U A120G A145U C150G U176G has a reverse-splicing fitness of 0.00275.
In the case of C82U A120G A145U C150G U176A, the reverse-splicing fitness is reported as 0.00575.
Work on C82U A120G A145U C150A C169U U176A yielded a reverse-splicing fitness of 0.022.
For C82U A120G A145U C150A C169U U176C, the reverse-splicing fitness was 0.014.
With C82U A120G A145U C150A C169U U176G the reverse-splicing fitness was 0.00395.
C82U A120U A145C C150A C169G U176A gave a reverse-splicing fitness of 0.00223.
In the case of C82U A120U A145C C150A C169G U176G, the reverse-splicing fitness is reported as 0.00161.
Work on C82U A120U A145C C150A C169G U176C yielded a reverse-splicing fitness of 0.00196.
With C82U A120G A145U the reverse-splicing fitness was 0.0237.
In the case of C82U A120G C150U C169A U176C, the reverse-splicing fitness is reported as 0.014.
C82U A120G C150U C169A U176A gave a reverse-splicing fitness of 0.016.
C82U A120G C150U C169A U176G gave a reverse-splicing fitness of 0.00423.
C82U A120G A145U C169G gave a reverse-splicing fitness of 0.0232.
With C82U A120G A145U C169A the reverse-splicing fitness was 0.017.
In the case of C82U A120G A145U C169U, the reverse-splicing fitness is reported as 0.0182.
C82U A120U A145C C150U C169U showed a reverse-splicing fitness of 0.00331.
Variant C82U A120U A145C C150U C169A has a reverse-splicing fitness of 0.00167.
C82U A120U A145C C150U C169G showed a reverse-splicing fitness of 0.00257.
C82U A120G A145G C150G C169G U176G gave a reverse-splicing fitness of 0.00523.
In the case of C82U A120G A145G C150G C169G U176C, the reverse-splicing fitness is reported as 0.0112.
For C82U A120G A145G C150G C169G U176A, the reverse-splicing fitness was 0.0089.

— the RNAGym collection of RNA variant scans (doi:10.1093/molbev/msab373)
